PMC2570549

Legend:
[1] = target: human thrombin (human)
[2] = target: human thrombin (human); remark: listed apart in the source

Substance: Serp-1, secreted myxoma viral serpin (recombinant) (from UniProt P12393 1-369) (natural protein)
- inhibition of thrombin (0.125 NIH units) by Serp-1 at 500 ng over 1 to 20 minutes, no heparin, discontinuous chromogenic assay [1]: 86%
- inhibition of thrombin activity (chromogenic substrate S-2238), 19 ng Serp-1 in the presence of heparin (0.2 IU), thrombin 0.002 NIH units [2]: 75%
- inhibition of thrombin activity (chromogenic substrate S-2238), no heparin, thrombin 0.002 NIH units, Serp-1 1250, 600 and 300 ng (75%, 65%, 25%); no inhibition at or below 150 ng [2]: 75%
